# From US20250361268A1, “NOVEL ANTI-INFLAMMATORY PEPTIDE AND USE THEREOF” (NOVACELL TECHNOLOGY INC., priority 2022, published 2025)
# T1: formyl peptide receptor 2 (FPR2) (UniProt P25090 1-351, limits assumed)
# T1 sequence (looked up): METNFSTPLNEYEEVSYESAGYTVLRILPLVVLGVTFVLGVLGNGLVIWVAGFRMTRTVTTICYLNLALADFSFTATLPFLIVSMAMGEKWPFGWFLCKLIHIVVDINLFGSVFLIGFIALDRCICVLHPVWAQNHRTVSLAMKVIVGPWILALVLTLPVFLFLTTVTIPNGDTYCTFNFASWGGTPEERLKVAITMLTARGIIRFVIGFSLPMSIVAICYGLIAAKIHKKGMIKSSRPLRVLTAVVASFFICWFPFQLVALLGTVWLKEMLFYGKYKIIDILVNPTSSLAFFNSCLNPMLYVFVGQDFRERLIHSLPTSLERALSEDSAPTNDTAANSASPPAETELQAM
# T2: FPR1 (UniProt P21462 1-350, limits assumed)
# T2 sequence (looked up): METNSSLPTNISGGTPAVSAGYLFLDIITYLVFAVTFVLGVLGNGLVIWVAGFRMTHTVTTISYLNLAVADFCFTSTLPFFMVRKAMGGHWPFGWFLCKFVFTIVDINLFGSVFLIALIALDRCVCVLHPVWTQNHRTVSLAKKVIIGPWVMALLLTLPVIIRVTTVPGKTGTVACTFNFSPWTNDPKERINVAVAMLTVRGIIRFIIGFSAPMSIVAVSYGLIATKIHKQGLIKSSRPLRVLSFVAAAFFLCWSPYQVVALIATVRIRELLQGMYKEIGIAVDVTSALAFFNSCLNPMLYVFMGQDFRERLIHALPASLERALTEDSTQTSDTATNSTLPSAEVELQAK
# B1: peptide of SEQ ID NO 63 (peptide)
# peptide: PMRYKPM
# HELM: PEPTIDE1{[ac].P.M.R.Y.K.P.[dM].[am]}$$$$V2.0
# SMILES: CSCC[C@H](NC(=O)[C@@H]1CCCN1C(C)=O)C(=O)N[C@@H](CCCNC(=N)N)C(=O)N[C@@H](Cc1ccc(O)cc1)C(=O)N[C@@H](CCCCN)C(=O)N1CCC[C@H]1C(=O)N[C@H](CCSC)C(N)=O
# B2: peptide of SEQ ID NO 64 (peptide)
# peptide: PMRYKPM
# HELM: PEPTIDE1{[CCCC(=O)[*:2]].P.M.R.Y.K.P.[dM].[am]}$$$$V2.0
# SMILES: CCCC(=O)N1CCC[C@H]1C(=O)N[C@@H](CCSC)C(=O)N[C@@H](CCCNC(=N)N)C(=O)N[C@@H](Cc1ccc(O)cc1)C(=O)N[C@@H](CCCCN)C(=O)N1CCC[C@H]1C(=O)N[C@H](CCSC)C(N)=O
# B3: peptide of SEQ ID NO 65 (peptide)
# peptide: PMRYKPM
# HELM: PEPTIDE1{[CCCCCCCC(=O)[*:2]].P.M.R.Y.K.P.[dM].[am]}$$$$V2.0
# SMILES: CCCCCCCC(=O)N1CCC[C@H]1C(=O)N[C@@H](CCSC)C(=O)N[C@@H](CCCNC(=N)N)C(=O)N[C@@H](Cc1ccc(O)cc1)C(=O)N[C@@H](CCCCN)C(=O)N1CCC[C@H]1C(=O)N[C@H](CCSC)C(N)=O
# B4: peptide of SEQ ID NO 7 (peptide)
# peptide: RMRYKVM
# HELM: PEPTIDE1{[CCCC(=O)[*:2]].R.M.R.Y.K.V.[dM].[am]}$$$$V2.0
# SMILES: CCCC(=O)N[C@@H](CCCNC(=N)N)C(=O)N[C@@H](CCSC)C(=O)N[C@@H](CCCNC(=N)N)C(=O)N[C@@H](Cc1ccc(O)cc1)C(=O)N[C@@H](CCCCN)C(=O)N[C@H](C(=O)N[C@H](CCSC)C(N)=O)C(C)C
# B5: peptide of SEQ ID NO 67 (peptide)
# peptide: KMKYKPM
# HELM: PEPTIDE1{[ac].K.M.K.Y.K.P.[dM].[am]}$$$$V2.0
# SMILES: CSCC[C@H](NC(=O)[C@H](CCCCN)NC(C)=O)C(=O)N[C@@H](CCCCN)C(=O)N[C@@H](Cc1ccc(O)cc1)C(=O)N[C@@H](CCCCN)C(=O)N1CCC[C@H]1C(=O)N[C@H](CCSC)C(N)=O
# B6: peptide of SEQ ID NO 68 (peptide)
# peptide: KMKYKPM
# HELM: PEPTIDE1{[CCCC(=O)[*:2]].K.M.K.Y.K.P.[dM].[am]}$$$$V2.0
# SMILES: CCCC(=O)N[C@@H](CCCCN)C(=O)N[C@@H](CCSC)C(=O)N[C@@H](CCCCN)C(=O)N[C@@H](Cc1ccc(O)cc1)C(=O)N[C@@H](CCCCN)C(=O)N1CCC[C@H]1C(=O)N[C@H](CCSC)C(N)=O
# B7: peptide of SEQ ID NO 70 (peptide)
# peptide: MKYKPM
# HELM: PEPTIDE1{M.K.Y.K.P.[dM].[am]}$$$$V2.0; N-terminus assumed
# SMILES: CSCC[C@H](N)C(=O)N[C@@H](CCCCN)C(=O)N[C@@H](Cc1ccc(O)cc1)C(=O)N[C@@H](CCCCN)C(=O)N1CCC[C@H]1C(=O)N[C@H](CCSC)C(N)=O
# B8: peptide of SEQ ID NO 74 (peptide)
# peptide: RWRYKPM
# HELM: PEPTIDE1{R.W.R.Y.K.P.[dM].[am]}$$$$V2.0; N-terminus assumed
# SMILES: CSCC[C@@H](NC(=O)[C@@H]1CCCN1C(=O)[C@H](CCCCN)NC(=O)[C@H](Cc1ccc(O)cc1)NC(=O)[C@H](CCCNC(=N)N)NC(=O)[C@H](Cc1c[nH]c2ccccc12)NC(=O)[C@@H](N)CCCNC(=N)N)C(N)=O
# B9: peptide of SEQ ID NO 78 (peptide)
# peptide: RWRYWYM
# HELM: PEPTIDE1{[ac].R.W.R.Y.W.Y.[dM].[am]}$$$$V2.0
# SMILES: CSCC[C@@H](NC(=O)[C@H](Cc1ccc(O)cc1)NC(=O)[C@H](Cc1c[nH]c2ccccc12)NC(=O)[C@H](Cc1ccc(O)cc1)NC(=O)[C@H](CCCNC(=N)N)NC(=O)[C@H](Cc1c[nH]c2ccccc12)NC(=O)[C@H](CCCNC(=N)N)NC(C)=O)C(N)=O
# B10: peptide of SEQ ID NO 80 (peptide)
# peptide: KWKYWYM
# HELM: PEPTIDE1{[ac].K.W.K.Y.W.Y.[dM].[am]}$$$$V2.0
# SMILES: CSCC[C@@H](NC(=O)[C@H](Cc1ccc(O)cc1)NC(=O)[C@H](Cc1c[nH]c2ccccc12)NC(=O)[C@H](Cc1ccc(O)cc1)NC(=O)[C@H](CCCCN)NC(=O)[C@H](Cc1c[nH]c2ccccc12)NC(=O)[C@H](CCCCN)NC(C)=O)C(N)=O
# B11: peptide of SEQ ID NO 81 (peptide)
# peptide: RMRYWYM
# HELM: PEPTIDE1{R.M.R.Y.W.Y.[dM].[am]}$$$$V2.0; N-terminus assumed
# SMILES: CSCC[C@H](NC(=O)[C@@H](N)CCCNC(=N)N)C(=O)N[C@@H](CCCNC(=N)N)C(=O)N[C@@H](Cc1ccc(O)cc1)C(=O)N[C@@H](Cc1c[nH]c2ccccc12)C(=O)N[C@@H](Cc1ccc(O)cc1)C(=O)N[C@H](CCSC)C(N)=O
# B12: peptide of SEQ ID NO 82 (peptide)
# peptide: RMRYWYM
# HELM: PEPTIDE1{[ac].R.M.R.Y.W.Y.[dM].[am]}$$$$V2.0
# SMILES: CSCC[C@H](NC(=O)[C@H](CCCNC(=N)N)NC(C)=O)C(=O)N[C@@H](CCCNC(=N)N)C(=O)N[C@@H](Cc1ccc(O)cc1)C(=O)N[C@@H](Cc1c[nH]c2ccccc12)C(=O)N[C@@H](Cc1ccc(O)cc1)C(=O)N[C@H](CCSC)C(N)=O
# B13: peptide of SEQ ID NO 83 (peptide)
# peptide: RMRYWYM
# HELM: PEPTIDE1{[CCCC(=O)[*:2]].R.M.R.Y.W.Y.[dM].[am]}$$$$V2.0
# SMILES: CCCC(=O)N[C@@H](CCCNC(=N)N)C(=O)N[C@@H](CCSC)C(=O)N[C@@H](CCCNC(=N)N)C(=O)N[C@@H](Cc1ccc(O)cc1)C(=O)N[C@@H](Cc1c[nH]c2ccccc12)C(=O)N[C@@H](Cc1ccc(O)cc1)C(=O)N[C@H](CCSC)C(N)=O
# B14: peptide of SEQ ID NO 85 (peptide)
# peptide: MRYWYM
# HELM: PEPTIDE1{M.R.Y.W.Y.[dM].[am]}$$$$V2.0; N-terminus assumed
# SMILES: CSCC[C@H](N)C(=O)N[C@@H](CCCNC(=N)N)C(=O)N[C@@H](Cc1ccc(O)cc1)C(=O)N[C@@H](Cc1c[nH]c2ccccc12)C(=O)N[C@@H](Cc1ccc(O)cc1)C(=O)N[C@H](CCSC)C(N)=O
# B15: peptide of SEQ ID NO 86 (peptide)
# peptide: MRYWYM
# HELM: PEPTIDE1{[ac].M.R.Y.W.Y.[dM].[am]}$$$$V2.0
# SMILES: CSCC[C@H](NC(C)=O)C(=O)N[C@@H](CCCNC(=N)N)C(=O)N[C@@H](Cc1ccc(O)cc1)C(=O)N[C@@H](Cc1c[nH]c2ccccc12)C(=O)N[C@@H](Cc1ccc(O)cc1)C(=O)N[C@H](CCSC)C(N)=O
# How the values were obtained:
# [1] = molecular target: T1, formyl peptide receptor 2 (FPR2); experiment: cell-based or functional assay
# FPR1 = molecular target: T2, FPR1; experiment: cell-based or functional assay
Binder,EC50 for [Ca2+] [1] [µM],EC50 for [Ca2+] (FPR1) [µM]
B1,< 0.01,> 10
B2,< 0.01,> 10
B3,< 0.01,> 10
B4,< 0.01,> 10
B5,< 0.01,> 10
B6,< 0.01,> 10
B7,< 0.01,> 10
B8,< 0.01,> 10
B9,< 0.01,> 10
B10,< 0.01,> 10
B11,< 0.01,> 10
B12,< 0.01,> 10
B13,< 0.01,> 10
B14,< 0.01,> 10
B15,< 0.01,> 10
